Measurements published in patent publication US20190231821A1 (US Dept. of Health and Human Services, published 2019).

Target: HERV-E peptide … (SEQ ID NO: 1) presented by HLA-A11 on cells (human)
Assay: cell-based or functional assay

B1: HLA-A11 restricted HERV-E reactive T cell receptor (TCR α chain SEQ ID NO: 4, TCR β chain SEQ ID NO: 5) (TCR, V domains shown)
V domain 1: GIQVEQSPPDLILQEGANSTLRCNFSDSVNNLQWFHQNPWGQLINLFYIPSGTKQNGRLSATTVATERYSLLYISSSQTTDSGVYFCAVRGGADGLTFGKGTHLIIQP
V domain 2: DTEVTQTPKHLVMGMTNKKSLKCEQHMGHRAMYWYKQKAKKPPELMFVYSYEKLSINESVPSRFSPECPNSSLLNLHLHALQPEDSALYLCASSPPNEKLFFGSGTQLSVLE
- interferon-γ secretion by ELISA (FIG. 8): > 2 fold over background
